Test results: FireProtDB (doi:10.1016/j.bpc.2007.12.006)
Values joined by “and” are separate entries in the source; they are usually repeats but may differ in a detail not shown here. Equal entries are not always repeated.

B1: Alpha-lactalbumin wild type, P00711 (protein)
chain: MMSFVSLLLVGILFHATQAEQLTKCEVFRELKDLKGYGGVSLPEWVCTTFHTSGYDTQAIVQNNDSTEYGLFQINNKIWCKDDQNPHSSNICNISCDKFLDDDLTDDIMCVKKILDKVGINYWLAHKALCSEKLDQWLCEKL
B2: Guanyl-specific ribonuclease T1 wild type, P00651 (protein)
chain: MMYSKLLTLTTLLLPTALALPSLVERACDYTCGSNCYSSSDVSTAQAAGYQLHEDGETVGSNSYPHKYNNYEGFDFSVSSPYYEWPILSSGDVYSGGSPGADRVVFNENNQLAGVITHTGASGNNFVECT

Conditions: CD, reversible: Yes, whole UniProt chain shown; for unfolding free energy: 25 °C; for heat capacity change of unfolding: Thermal

Protein | unfolding free energy (Bos taurus, pH 7, GdnHCl, Cacodylic acid 0.05 M, NaCl 0.1 M) | unfolding free energy (Bos taurus, pH 7, Urea, Cacodylic acid 0.05 M, NaCl 0.1 M) | heat capacity change of unfolding (Bos taurus, pH 7, Cacodylic acid 0.05 M, NaCl 0.1 M) | unfolding free energy (Aspergillus oryzae (strain ATCC 42149 / RIB 40), pH 2.2, GdnHCl, Glycine-HCl 0.1 M, KCl 0.1 M) | unfolding free energy (Aspergillus oryzae (strain ATCC 42149 / RIB 40), pH 2.2, Urea, Glycine-HCl 0.1 M, KCl 0.1 M) | heat capacity change of unfolding (Aspergillus oryzae (strain ATCC 42149 / RIB 40), pH 2.2, Glycine-HCl 0.1 M, KCl 0.1 M)
B1 | 2.41 kcal/mol | 2.35 kcal/mol | 2.15 kcal/mol/K and 2 kcal/mol/K |  |  | 
B2 |  |  |  | 2.72 kcal/mol | 2.77 kcal/mol | 2.5 kcal/mol/K and 2.65 kcal/mol/K
